For one molecule, binding result and Kd results are on record in PMC7022712, “Functional Analysis of DNMT3A DNA Methyltransferase Mutations Reported in Patients with Acute Myeloid Leukemia”.

For data set [1], the target named is Dnmt3a-CD R45W (Mus musculus, UniProt O88508 608-908, R631W). The data set can be described thus: fluorescence polarization; 100 uM AdoHcy; Buffer A: 20 mM HEPES pH 7.5, 100 mM KCl, 1 mM EDTA, 1 mM DTT, 100 uM AdoHcy, 25 C; DNA 100 nM (Methods) or 10 nM (Figure 6 legend); Hill fit. As to conditions: protein: recombinant; tags: C-terminal His6; chain copies: 2; label: 5'-FAM on strand 1 via aminohexyl linker; blunt.

Data set [2] concerns the target Dnmt3a-CD S124C (Mus musculus, UniProt O88508 608-908, S710C). The data set is described as above. As to conditions: protein: recombinant; tags: C-terminal His6; chain copies: 2; label: 5'-FAM on strand 1 via aminohexyl linker; blunt.
Data set [3] has as its target Dnmt3a-CD WT (Mus musculus, UniProt O88508 608-908). The description is as above. As to conditions: protein: recombinant; tags: C-terminal His6 (Results); chain copies: 2; label: 5'-FAM on strand 1 via aminohexyl linker; blunt.
For data set [4], the target named is Dnmt3a-CD R146H (Mus musculus, UniProt O88508 608-908, R732H). The description is as above. As to conditions: protein: recombinant; tags: C-terminal His6; chain copies: 2; label: 5'-FAM on strand 1 via aminohexyl linker; blunt.
The target in data set [5] is Dnmt3a-CD F162V (Mus musculus, UniProt O88508 608-908, F748V). Put plainly: fluorescence polarization; 100 uM AdoHcy; no plateau reached; Buffer A: 20 mM HEPES pH 7.5, 100 mM KCl, 1 mM EDTA, 1 mM DTT, 100 uM AdoHcy, 25 C; DNA 100 nM (Methods) or 10 nM (Figure 6 legend); Hill fit. As to conditions: protein: recombinant; tags: C-terminal His6; chain copies: 2; label: 5'-FAM on strand 1 via aminohexyl linker; blunt. (In fluorescence polarisation assays a small probe gives low polarisation when free and higher when bound to something large.)
Dnmt3a-CD F162V, sequence (O88508 608-908 F748V): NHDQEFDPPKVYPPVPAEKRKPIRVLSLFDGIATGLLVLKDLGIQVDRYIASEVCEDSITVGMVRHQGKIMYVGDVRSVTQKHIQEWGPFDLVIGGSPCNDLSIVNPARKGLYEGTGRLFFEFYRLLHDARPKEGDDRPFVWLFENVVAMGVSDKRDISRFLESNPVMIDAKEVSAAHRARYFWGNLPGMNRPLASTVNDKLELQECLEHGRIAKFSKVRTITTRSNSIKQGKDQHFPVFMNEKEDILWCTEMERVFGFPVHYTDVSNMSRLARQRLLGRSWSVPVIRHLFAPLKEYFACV

Dnmt3a-CD WT, sequence (O88508 608-908): as the sequence (O88508 608-908 F748V) above, with V141F counted along it
Dnmt3a-CD S124C, sequence (O88508 608-908 S710C): as the sequence (O88508 608-908 F748V) above, with S103C, V141F counted along it
Dnmt3a-CD R45W, sequence (O88508 608-908 R631W): as the sequence (O88508 608-908 F748V) above, with R24W, V141F counted along it
Dnmt3a-CD R146H, sequence (O88508 608-908 R732H): as the sequence (O88508 608-908 F748V) above, with R125H, V141F counted along it

B1: fCG/CG (dsDNA)
DNA 1: CTGAATACTACTTGCGCTCTCTAACCTGAT
DNA 2: ATCAGGTTAGAGAGCGCAAGTAGTATTCAG
As usually defined, the Kd is the equilibrium constant for the complex coming apart. B1: the binding result in data set [1] and in data set [4] was “no binding” throughout. In addition, the Kd in data set [2] worked out at 127 ± 44 nM; in data set [3], 77 ± 6 nM; in data set [5], 232 ± 32 nM.
